According to paper PMC5863373, “Characterization of association of human mitochondrial lysyl-tRNA synthetase with HIV-1 Pol and tRNA3^Lys” (BMC Biochemistry, 2018):

Key:
[1] = molecular target: T1, human mitochondrial lysyl-tRNA synthetase with a C-terminal HA-tag (human, UniProt Q15046-2); assay: AlphaScreen or HTRF; conditions: both partners purified
T1 construct: also called mLysRS; mLysRS-HA; source: E. coli, purified as described [12]

[2] = molecular target: T2, HIV-1 integrase with a C-terminal His6 tag (HIV-1 (pNL4-3)); assay: AlphaScreen or HTRF; conditions: both partners purified
T2 construct: source: High Five insect cells (baculovirus), purified (Ni-NTA, Mono S); not shown: His6, C-terminal, kept

| Binder | Kd [1] [nM] | Kd [2] [nM] |
| --- | --- | --- |
| p38, scaffold protein of the multi-synthetase complex (AIMP2), His-tagged (natural protein, human, UniProt Q13155 1-320, looked up, also called His-tagged p38) MPMYQVKPYHGGGAPLRVELPTCMYRLPNVHGRSYGPAPGAGHVQEESNLSLQALESRQDDILKRLYELKAAVDGLSKMIQTPDADLDVTNIIQADEPTTLTTNALDLNSVLGKDYGALKDIVINANPASPPLSLLVLHRLLCEHFRVLSTVHTHSSVKSVPENLLKCFGEQNKKQPRQDYQLGFTLIWKNVPKTQMKFSIQTMCPIEGEGNIARFLFSLFGQKHNAVNATLIDSWVDIAIFQLKEGSSKEKAAVFRSMNSALGKSPWLAGNELTVADVVLWSVLQQIGGCSVTVPANVQRWMRSCENLAPFNTALKLLK | 0.5 | – |
| mLysRS derivative with a C-terminal deletion of 22 aminoacid residues, with a C-terminal HA-tag (domain or fragment) not shown | – | 8.3 |
